Laboratory results taken from the DeepSol protein solubility set.

Assay: soluble on expression in E. coli; label from the status in PepcDB or PDB records

Sequence	soluble on expression in E. coli
MATCLVEFAKSPPVFSPGEKVTGNVKMTIPDDEFKARKVRMEMIGKAYTYWEGNVRNNHTKIKNGDIARVRHNCADHKGKIVYCRFETIVWKSDGAKNDMPSGPHIFPFSFQLPHWAPPSFEGDLGFIRYFIKVEIDRPWKFDDKFITCLTVLPNIDLRLIPNSQVPSKKHVCEEFGAVLWKNGLVRMELRLPKQGFVCGENIPVTMIVDNKTSKSFKKISLRLVQRVTYTGFRDGFVNSHSQPCIGNEKEKITYATRLNAQTRVEERQISETNIDIKIDKNEKQEVEKPIPLPPLPPSTKTCEIIDVEYFLKVKMSTSGALKSAVKLELAFIIGTMPIDPERKYEYKKSVFGFAATSLKNRDVQKFAPLYPVFKFDE	not soluble
MGSDKIHHHHHHMDIKLKDFEGPLDLLLHLVSQYKVDIYEVPIVEVIEQYLNYIETLQVMKLEVAGDYMLMASQLMLIKSRRLLPKVVEHIEEDLEQDLLEKIEEYSRFKAVSQALAKQHDQRAKWYSKPKQELIFEDAILQEDKTVMDLFLAFSNIMAAKRAVLKNNHTVIERDDYKIEDMMASIKQRLEKENVIRLSAIFEECQTLNEVISIFLASLELIKLHVVFVEQLSNFGAIILRKEKK	not soluble
MNRARDWLEQARHNLRHAQGSLGLGDYAWACFAAQQAAEAALKGLHLARGQVAWGHSILDLLADLPEDVDVPEDLVEAAKVLDKYYIPTRYPDAHPAGPAARHYTRLEAEEALDLAQKILAFVEEKL	soluble
GPGSMDPNTCAPASAVTDEQPLTLLWGTWEMWCDMPQRQQGQSTENTNWLEQVKSIGLFDSAEGFWGIFNCTILPSQLPPNGSYYLFRKHIAPMWEHEANRRGGKWVIPFTGKASRSEGDLQPVDEAWQTLCLSAIGELFPGDEEEICGVTVSRGRQRTLPSGHATSALSEWKLCLWTRSADNRGSQIRIAEYIRKQLHLQPPSKEASRDGKSGEQDTLMEMPRSPDRSPVAKMREASGIPSAMTYVAHRDLMEAKQEFVKGGSSVAQAFRPKYTLAIDVRNEGV	soluble
MIGYEFFVSEKLENCKYKYIKAINDYIKQEKSHIIGIDLGKYHYLTASNIDRSFVFVDKHNTLFHLFRKYERRIANKQYDNSEAYSKLKTGLKSHINQVVNEMLEQTSNRFQTVFALDDHGSSHLSFPSLVFDLTYFAIKQRKNESDEILIVDESFTSIECPICHDRNQYNRTNKNKFKCTKCGFIHQNNDIVAASNIAKKGQLLNSLEHHHHHH	not soluble
MLPFLAASPGLGDVRAPAIWLGLVSQPSRTPIITKNSKTKRKTDGSTTRQSSSLGPRSSPLRSAGGQLRKTTRSELKKSHFHLGSWNAQSLLGPRLASGVEYLKNSTCHVVNLQETRFFSMASIDQPEFQLLFSPKTNSKDLGLGFFVKKCQDLEVINVSWIGVGIASLELEFRKVKIMVLNVYAPVCKSRSENDAKRFFERLRAEYIQLRKSFKGPIVLGGDFNAATSCSTNDELAPWICGNVFGNSNNHGDFFFNFLASTRLFQLNSRFRKRLASRWTFAGKKGVGRTEIDFFISNRIDLVEDVSTFPNLHNLSDHRLIRSRWVISVKSERDHAFKSRRPPSTGKERDWTLYEDAIKDLRKHATLGSYDSFVKTLRQGLVPLPAHKPHKFSQRTIMILQERRQVLESSVPDIAKLRKLSQEARKSITEDLTQKYDSILEACRKKRSSKILNKSIPAEIPLQYLEWPDGSLTANRIEIRKIVESHFKTLYEAPTSSPSHPRNPNSNPPNSDPVPAILKCEVRLEIRKLKTKSAPGLDNVDAAMLKNGGDTVVDSVTALFNDILHHNKVPDLWKIADVKLIPKKAKATKIKDFRPISLLPILSKMFSSILTRRLTPTLESYLDESQTKVFRKGRCCADNIQSLTMLIEKCNEFQLPLLLLFIDYQTAFDKISHSSVVSSLERAGADPAMRKMIQELMEGGQAEITVHDKKLKVNLCTGIRQGDSASPALFSAALQAILTDCDNELAGVGISVEGRHIRRLEFADDVVLICSTPEEVQERLEILDRISSNYGLKINQSKTVLLKNKFCRSQDILFNGSPIIPVPGCRYLGRWIDISGSIDEEISRRIRAGWGALVGIKEVLRIMPNKERIILFKQNVLPALLYASETWTCNAGSTLRLKRTVTGLIDAAEIRGWNFNLERYLLAKQSRFAGHILRRDPF	not soluble
MAHHHHHHMFKTMMFKTMRNYFMLNFKRNYRHYSRKKNINNINRKMNDPYSDLYKMNYYGNNFKRLPNKKTKSNEYELIRTSSNSFTYSSPYPPNINYTLKPYPDSAKEFYYENRKYVMKYKNVEYIPIKRMVCKGMSRRSNWDTYYLRVEK	not soluble
